B1: GST-eEF1BδL fragment of residues 181–367 (domain or fragment, human, UniProt P29692-2 181-367, looked up)
chain: SQALLLAPDGSRRQGTPNTGQQVAVPDLAHQPSPPVNGQPPLGSLQALVREVWLEKPRYDAAERGFYEALFDGHPPGKVRLQERAGLAEGARRGRRDRRGRNILGNKRAGLRRADGEAPSALPYCYFLQKDAEAPWLSKPAYDSAECRHHAAEALRVAWCLEAASLSHRPGPRSGLSVSSLRPNRKM
B2: His-HSF1 (purified) (natural protein, human, UniProt Q00613 1-529, looked up)
chain: MDLPVGPGAAGPSNVPAFLTKLWTLVSDPDTDALICWSPSGNSFHVFDQGQFAKEVLPKYFKHNNMASFVRQLNMYGFRKVVHIEQGGLVKPERDDTEFQHPCFLRGQEQLLENIKRKVTSVSTLKSEDIKIRQDSVTKLLTDVQLMKGKQECMDSKLLAMKHENEALWREVASLRQKHAQQQKVVNKLIQFLISLVQSNRILGVKRKIPLMLNDSGSAHSMPKYSRQFSLEHVHGSGPYSAPSPAYSSSSLYAPDAVASSGPIISDITELAPASPMASPGGSIDERPLSSSPLVRVKEEPPSPPQSPRVEEASPGRPSSVDTLLSPTALIDSILRESEPAPASVTALTDARGHTDTEGRPPSPPPTSTPEKCLSVACLDKNELSDHLDAMDSNLDNLQTMLSSHGFSVDTSALLDLFSPSVTVPDMSLPDLDSSLASIQELLSPQEPPRPPEAENSSPDSGKQLVHYTAQPLFLLDPGSVDTGSNDLPVLFELGEGSYFSEGDGFAEDPTISLLTGSEPPKAKDPTVS
B3: FLAG-eEF1BδL (purified) (natural protein)
chain: MRSGKASCTLETVWEDKHKYEEAERRFYEHEATQAAASAQQLPAEGPAMNGPGQDDPEDADEAEAPDGGSRRDPRKSQDSRKPLQKKRKRSPKSGLGPADLALLGLSAERVWLDKSLFDQAESSYRQKLADVAAQAAWPPALAPWGLCTHGNQVACHHVTWGIWVNKSSFDQAERAFVEWSQALLLAPDGSRRQGTPNTGQQVAVPDLAHQPSPPVNGQPPLGSLQALVREVWLEKPRYDAAERGFYEALFDGHPPGKVRLQERAGLAEGARRGRRDRRGRNILGNKRAGLRRADGEAPSALPYCYFLQKDAEAPWLSKPAYDSAECRHHAAEALRVAWCLEAASLSHRPGPRSGLSVSSLRPNRKMATNFLAHEKIWFDKFKYDDAERRFYEQMNGPVAGASRQENGASVILRDIARARENIQKSLAGSSGPGASSGTSGDHGELVVRIASLEVENQSLRGVVQELQQAISKLEARLNVLEKSSPGHRATAPQTQHVSPMRQVEPPAKKPATPAEDDEDDDIDLFGSDNEEEDKEAAQLREERLRQYAEKKAKKPALVAKSSILLDVKPWDDETDMAQLEACVRSIQLDGLVWGASKLVPVGYGIRKLQIQCVVEDDKVGTDLLEEEITKFEEHVQSVDIAAFNKI

What all share (assay): pull-down
Test [1] concerns the target B2.
Test [2] concerns the target B3.
Test [3] deals with GST-RNF20/FLAG-RNF40 (human, UniProt Q5VTR2 1-975; O75150 1-1001).
GST-RNF20/FLAG-RNF40, sequence (Q5VTR2 whole entry, chain 1 of 2): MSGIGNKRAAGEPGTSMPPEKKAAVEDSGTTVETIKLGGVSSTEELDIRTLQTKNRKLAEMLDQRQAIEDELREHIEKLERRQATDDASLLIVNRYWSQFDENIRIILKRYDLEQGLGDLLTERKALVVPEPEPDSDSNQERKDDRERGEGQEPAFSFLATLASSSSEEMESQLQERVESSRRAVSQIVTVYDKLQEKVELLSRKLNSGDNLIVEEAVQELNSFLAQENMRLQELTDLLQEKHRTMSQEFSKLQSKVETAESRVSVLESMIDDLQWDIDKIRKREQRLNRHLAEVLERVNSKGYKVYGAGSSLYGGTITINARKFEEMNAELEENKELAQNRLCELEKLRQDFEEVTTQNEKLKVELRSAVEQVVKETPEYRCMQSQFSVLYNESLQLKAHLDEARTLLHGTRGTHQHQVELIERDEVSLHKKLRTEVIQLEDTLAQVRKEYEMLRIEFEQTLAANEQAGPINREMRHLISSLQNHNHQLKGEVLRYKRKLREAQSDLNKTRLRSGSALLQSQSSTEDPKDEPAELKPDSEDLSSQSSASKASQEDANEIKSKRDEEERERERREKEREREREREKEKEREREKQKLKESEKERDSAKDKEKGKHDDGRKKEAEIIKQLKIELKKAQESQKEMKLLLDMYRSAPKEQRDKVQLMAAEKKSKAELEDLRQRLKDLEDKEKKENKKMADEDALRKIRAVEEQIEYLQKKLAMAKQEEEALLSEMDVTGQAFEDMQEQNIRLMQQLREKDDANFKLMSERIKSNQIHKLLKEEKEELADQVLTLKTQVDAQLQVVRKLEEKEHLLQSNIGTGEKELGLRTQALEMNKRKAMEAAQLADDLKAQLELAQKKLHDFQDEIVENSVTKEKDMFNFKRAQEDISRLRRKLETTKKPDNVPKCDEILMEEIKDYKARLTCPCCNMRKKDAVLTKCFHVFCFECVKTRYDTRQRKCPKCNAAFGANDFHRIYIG
GST-RNF20/FLAG-RNF40, sequence (O75150 whole entry, chain 2 of 2): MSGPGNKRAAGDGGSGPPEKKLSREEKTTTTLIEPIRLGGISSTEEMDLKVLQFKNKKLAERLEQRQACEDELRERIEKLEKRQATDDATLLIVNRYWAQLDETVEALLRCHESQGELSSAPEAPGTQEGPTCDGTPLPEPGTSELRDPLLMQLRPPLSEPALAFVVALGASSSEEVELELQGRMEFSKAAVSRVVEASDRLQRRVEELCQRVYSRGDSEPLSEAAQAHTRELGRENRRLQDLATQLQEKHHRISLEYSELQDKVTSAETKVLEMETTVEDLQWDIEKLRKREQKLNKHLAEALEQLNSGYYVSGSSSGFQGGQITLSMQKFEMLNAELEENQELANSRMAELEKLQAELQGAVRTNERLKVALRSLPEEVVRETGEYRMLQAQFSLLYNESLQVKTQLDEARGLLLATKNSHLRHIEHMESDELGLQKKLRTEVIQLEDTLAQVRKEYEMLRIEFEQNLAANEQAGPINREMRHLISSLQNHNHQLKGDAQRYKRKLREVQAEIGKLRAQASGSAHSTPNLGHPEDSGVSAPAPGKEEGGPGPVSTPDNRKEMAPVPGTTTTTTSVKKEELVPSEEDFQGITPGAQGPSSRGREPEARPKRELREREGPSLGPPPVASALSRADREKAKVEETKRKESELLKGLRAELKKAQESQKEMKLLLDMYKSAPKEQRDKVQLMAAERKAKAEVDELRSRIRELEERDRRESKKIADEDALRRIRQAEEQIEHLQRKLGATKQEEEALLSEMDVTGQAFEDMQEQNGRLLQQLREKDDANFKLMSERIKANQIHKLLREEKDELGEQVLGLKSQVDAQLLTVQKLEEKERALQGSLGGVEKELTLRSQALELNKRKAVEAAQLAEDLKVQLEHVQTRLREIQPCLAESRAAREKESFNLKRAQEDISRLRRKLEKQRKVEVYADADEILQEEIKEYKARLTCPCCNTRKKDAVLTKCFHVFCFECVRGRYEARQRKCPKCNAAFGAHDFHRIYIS

Turning to B1, the binding result in test [1] is “binds”.

In the case of B2, in test [2], the binding result was “binds”.

On to B3, for which the binding result in test [3] was “binds”.

Values taken from article PMC6451099 (Nucleic Acids Research, 2019).
